Columns and labels:
PCNA = settings: PIP or APIM mutated; local ultraviolet irradiation; ref [5]; cited from earlier work
[1] = target: uniformly 2H,13C,15N-labelled proliferating cell nuclear antigen (PCNA), used in NMR (human, UniProt P12004 1-259, uniformly 2H,13C,15N enriched); test: NMR titration
Sequence of uniformly 2H,13C,15N-labelled proliferating cell nuclear antigen (PCNA), used in NMR (P12004 1-259): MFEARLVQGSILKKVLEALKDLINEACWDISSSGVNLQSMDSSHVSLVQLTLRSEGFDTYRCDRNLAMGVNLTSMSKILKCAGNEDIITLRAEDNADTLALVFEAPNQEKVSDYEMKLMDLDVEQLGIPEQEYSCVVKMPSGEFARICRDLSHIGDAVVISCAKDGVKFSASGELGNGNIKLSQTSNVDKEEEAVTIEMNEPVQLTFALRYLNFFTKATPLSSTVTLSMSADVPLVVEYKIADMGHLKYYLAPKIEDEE

| Molecule | co-localization of PCNA and FBH1 on motif mutation (PCNA) | Kd [1] [µM] |
| --- | --- | --- |
| F-box DNA helicase 1 (protein, UniProt Q8NFZ0 1-1043, looked up) F-box DNA helicase 1: MRRFKRKHLTAIDCQHLARSHLAVTQPFGQRWTNRDPNHGLYPKPRTKRGSRGQGSQRCIPEFFLAGKQPCTNDMAKSNSVGQDSCQDSEGDMIFPAESSCALPQEGSAGPGSPGSAPPSRKRSWSSEEESNQATGTSRWDGVSKKAPRHHLSVPCTRPREARQEAEDSTSRLSAESGETDQDAGDVGPDPIPDSYYGLLGTLPCQEALSHICSLPSEVLRHVFAFLPVEDLYWNLSLVCHLWREIISDPLFIPWKKLYHRYLMNEEQAVSKVDGILSNCGIEKESDLCVLNLIRYTATTKCSPSVDPERVLWSLRDHPLLPEAEACVRQHLPDLYAAAGGVNIWALVAAVVLLSSSVNDIQRLLFCLRRPSSTVTMPDVTETLYCIAVLLYAMREKGINISNRIHYNIFYCLYLQENSCTQATKVKEEPSVWPGKKTIQLTHEQQLILNHKMEPLQVVKIMAFAGTGKTSTLVKYAEKWSQSRFLYVTFNKSIAKQAERVFPSNVICKTFHSMAYGHIGRKYQSKKKLNLFKLTPFMVNSVLAEGKGGFIRAKLVCKTLENFFASADEELTIDHVPIWCKNSQGQRVMVEQSEKLNGVLEASRLWDNMRKLGECTEEAHQMTHDGYLKLWQLSKPSLASFDAIFVDEAQDCTPAIMNIVLSQPCGKIFVGDPHQQIYTFRGAVNALFTVPHTHVFYLTQSFRFGVEIAYVGATILDVCKRVRKKTLVGGNHQSGIRGDAKGQVALLSRTNANVFDEAVRVTEGEFPSRIHLIGGIKSFGLDRIIDIWILLQPEEERRKQNLVIKDKFIRRWVHKEGFSGFKRYVTAAEDKELEAKIAVVEKYNIRIPELVQRIEKCHIEDLDFAEYILGTVHKAKGLEFDTVHVLDDFVKVPCARHNLPQLPHFRVESFSEDEWNLLYVAVTRAKKRLIMTKSLENILTLAGEYFLQAELTSNVLKTGVVRCCVGQCNNAIPVDTVLTMKKLPITYSNRKENKGGYLCHSCAEQRIGPLAFLTASPEQVRAMERTVENIVLPRHEALLFLVF | reduced co-localization of PCNA and FBH1 when either PIP or APIM is mutated |  |
| GSQRCIPEFFLAGK [FBH1PIP peptide (residues 55-68 of F-box DNA helicase 1)] |  | 7.8 |
| KDKFIRRWVHK [FBH1APIM peptide (residues 805-815 of F-box DNA helicase 1)] |  | 276 |

From article PMC10727010 (Structure (London, England : 1993), 2023)
